The record followed here is publication PMC12111036.

The target in assay [1] is p75 receptor (not stated (human SH-SY5Y or mouse HT22 cells cultured)) (UniProt P08138). Nature of the assay: co-IP; control cells without added BDNF; native lysis; IP of 100 μL whole-cell lysate with anti-TrkB or anti-p75 antibody and protein A&G beads at 4 °C; Western blot with anti-BDNF antibody; band intensity in percent of the control WCL band.
In assay [2] the target is Tyrosine kinase receptor B (TrkB) (not stated (human SH-SY5Y or mouse HT22 cells cultured)) (UniProt Q16620). The assay is described as above.
The target of assay [3] is Amyloid-β protein 1–42 protofibrils (Aβ42P) (human) (UniProt P05067). Nature of the assay: ELISA; indirect ELISA; Aβ42 species or HSA (2.0 μM) coated on 96-well plates at 4 °C for 12 h, blocked with 5% nonfat dry milk in TBS; BDNF 20 pg/mL added, 37 °C, 24 h; bound BDNF detected with anti-BDNF antibody; binding rate in percent of the BDNF added; also run with CA/EGCG (50 μM) or IG3/BCP (2.0 μM). Background: ELISA stands for enzyme-linked immunosorbent assay.

Assay [4] deals with Amyloid-β protein 1–42 monomers (Aβ42M) (human) (UniProt P05067). The assay is described as above.
Assay [5] addresses Amyloid-β protein 1–42 fibrils (Aβ42F) (human) (UniProt P05067). Described as above.
In assay [6] the target is Amyloid-β protein 1–42 oligomers (Aβ42O) (human) (UniProt P05067). Described as above.
Assay [7] concerns the target p75 receptor (not stated (human SH-SY5Y or mouse HT22 cells cultured)) (UniProt P08138). The assay is described as follows: co-IP; cells incubated 48 h with BDNF 1.0 nM, alone or with Aβ42M/Aβ42O 0.2 μM and/or CA/EGCG 100 μM or IG3/BCP 2.0 μM; native lysis; IP with anti-TrkB or anti-p75 antibody and protein A&G beads at 4 °C; Western blot with anti-BDNF antibody; band intensity in percent of the control WCL band. A general note: Immunoblotting shows a protein as a band on a membrane.

For assay [8], the target named is Tyrosine kinase receptor B (TrkB) (not stated (human SH-SY5Y or mouse HT22 cells cultured)) (UniProt Q16620). The assay is described as above.

Chain of p75 receptor (not stated (human SH-SY5Y or mouse HT22 cells cultured)) (P08138 29-427): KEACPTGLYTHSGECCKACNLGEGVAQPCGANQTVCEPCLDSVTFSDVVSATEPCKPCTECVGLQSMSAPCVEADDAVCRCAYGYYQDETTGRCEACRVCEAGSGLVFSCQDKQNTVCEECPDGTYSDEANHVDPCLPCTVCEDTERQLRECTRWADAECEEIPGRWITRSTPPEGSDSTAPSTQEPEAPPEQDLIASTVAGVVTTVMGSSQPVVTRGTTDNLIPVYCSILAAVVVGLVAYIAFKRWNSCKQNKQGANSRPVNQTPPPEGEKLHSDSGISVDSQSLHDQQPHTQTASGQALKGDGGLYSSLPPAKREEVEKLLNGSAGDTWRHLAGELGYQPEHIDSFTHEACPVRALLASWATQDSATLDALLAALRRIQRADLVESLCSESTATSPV

Turning to “Endogenous BDNF of the control cells (ligand)”, the BDNF on Co-IP beads, percent of control WCL (no BDNF added) in assay [1] was 31.9%; in assay [2] it was 44.1%.

In turn, “Human brain-derived neurotrophic factor (BDNF) (ligand)” displayed a binding rate in assay [3] of less than 5%. The substance also gave a binding rate in assay [4] of more than 10%. The binding rate in assay [5] was less than 5%. This substance also registered a binding rate in assay [6] of more than 10%. Besides, in assay [7], the BDNF on Co-IP beads, percent of control WCL (BDNF added) stood at 70%; the BDNF on Co-IP beads, percent of control WCL (BDNF with Aβ42M and CA/EGCG) stood at 73.4%; the BDNF on Co-IP beads, percent of control WCL (BDNF with Aβ42M and IG3/BCP) turned out to be 83.2%; the BDNF on Co-IP beads, percent of control WCL (BDNF with Aβ42M) is 71.9%. Also, in assay [7], the BDNF on Co-IP beads, percent of control WCL (BDNF with Aβ42O and CA/EGCG) amounted to 62.1%; the BDNF on Co-IP beads, percent of control WCL (BDNF with Aβ42O and IG3/BCP) is 61.7%; the BDNF on Co-IP beads, percent of control WCL (BDNF with Aβ42O) came out at 64.3%. In assay [8], the BDNF on Co-IP beads, percent of control WCL (BDNF added) worked out at 85%; the BDNF on Co-IP beads, percent of control WCL (BDNF with Aβ42M and CA/EGCG) worked out at 89.3%; the BDNF on Co-IP beads, percent of control WCL (BDNF with Aβ42M and IG3/BCP) amounted to 92%; the BDNF on Co-IP beads, percent of control WCL (BDNF with Aβ42M) was 88.3%. In assay [8], the BDNF on Co-IP beads, percent of control WCL (BDNF with Aβ42O and CA/EGCG) is 72.2%; the BDNF on Co-IP beads, percent of control WCL (BDNF with Aβ42O and IG3/BCP) was 73.4%; the BDNF on Co-IP beads, percent of control WCL (BDNF with Aβ42O) was found to be 58.1%.
